According to paper PMC9482650, “Quantitative fragmentomics allow affinity mapping of interactomes” (Nature Communications, 2022):
Substitutions are numbered along the chain they refer to.

Tests used:
Experiment in all cases: holdup assay
Design in all cases: key: below the threshold = too weak to quantify, mostly under pKd 3.1 to 4
Settings in all cases: plain residues with an end cap or a label only (N-terminal biotin on a linker: ado-ado)
MPDZ_10, O75970 = molecular target: T1, MPDZ_10, O75970
T1 sequence (O75970 1624-1722, limits assumed, looked up): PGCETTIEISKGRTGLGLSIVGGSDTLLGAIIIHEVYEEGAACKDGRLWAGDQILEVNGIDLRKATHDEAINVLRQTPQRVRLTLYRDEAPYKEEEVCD

PICK1, Q9NRD5 = molecular target: PICK1, Q9NRD5
Chain of PICK1, Q9NRD5 (Q9NRD5 17-115): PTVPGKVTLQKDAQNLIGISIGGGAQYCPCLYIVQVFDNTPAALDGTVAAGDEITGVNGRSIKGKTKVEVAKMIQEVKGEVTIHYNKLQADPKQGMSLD

GRIP1_4, Q9Y3R0 = molecular target: T2, GRIP1_4, Q9Y3R0
T2 sequence (Q9Y3R0 467-571, limits assumed, looked up): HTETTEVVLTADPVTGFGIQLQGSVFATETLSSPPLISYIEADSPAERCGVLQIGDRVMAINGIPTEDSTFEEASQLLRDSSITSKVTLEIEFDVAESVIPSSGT

LIN7C, Q9NUP9 = molecular target: T3, LIN7C, Q9NUP9
T3 sequence (Q9NUP9 88-185, limits assumed, looked up): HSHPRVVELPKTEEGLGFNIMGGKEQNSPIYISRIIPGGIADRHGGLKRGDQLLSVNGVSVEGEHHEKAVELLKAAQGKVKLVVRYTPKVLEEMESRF

ARHGAP21, Q5T5U3 = molecular target: T4, ARHGAP21, Q5T5U3
T4 sequence (Q5T5U3 45-169, limits assumed, looked up): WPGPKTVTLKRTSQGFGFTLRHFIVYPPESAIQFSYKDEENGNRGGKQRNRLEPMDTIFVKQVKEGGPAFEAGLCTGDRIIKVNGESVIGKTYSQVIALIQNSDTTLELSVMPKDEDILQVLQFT

PDZD2_2, O15018 = molecular target: T5, PDZD2_2, O15018
T5 sequence (O15018 329-429, limits assumed, looked up): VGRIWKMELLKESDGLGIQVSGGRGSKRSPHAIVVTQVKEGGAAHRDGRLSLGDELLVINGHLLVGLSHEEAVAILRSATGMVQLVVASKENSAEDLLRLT

MPP6, Q9NZW5 = molecular target: T6, MPP6, Q9NZW5
T6 sequence (Q9NZW5 125-219, limits assumed, looked up): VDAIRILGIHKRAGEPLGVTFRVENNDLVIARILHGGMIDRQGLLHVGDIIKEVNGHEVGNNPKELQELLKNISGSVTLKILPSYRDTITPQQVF

SCRIB_3, Q14160 = molecular target: SCRIB_3, Q14160
Chain of SCRIB_3, Q14160 (Q14160 999-1103): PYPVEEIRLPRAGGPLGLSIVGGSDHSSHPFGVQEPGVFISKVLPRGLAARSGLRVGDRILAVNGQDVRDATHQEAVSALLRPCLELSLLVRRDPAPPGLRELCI

MPDZ_5, O75970 = molecular target: T7, MPDZ_5, O75970
T7 sequence (O75970 695-796, limits assumed, looked up): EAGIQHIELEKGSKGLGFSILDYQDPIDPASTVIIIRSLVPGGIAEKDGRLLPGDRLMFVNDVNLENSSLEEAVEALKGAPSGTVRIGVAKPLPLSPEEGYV

LAP2, Q96RT1 = molecular target: LAP2, Q96RT1
Chain of LAP2, Q96RT1 (Q96RT1 other isoform, or with tags, fused parts or gaps): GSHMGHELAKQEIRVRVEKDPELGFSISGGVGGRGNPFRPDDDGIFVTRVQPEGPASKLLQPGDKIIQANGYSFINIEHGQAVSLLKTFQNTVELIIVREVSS

DLG5_1, Q8TDM6 = molecular target: DLG5_1, Q8TDM6
Chain of DLG5_1, Q8TDM6 (Q8TDM6 617-713): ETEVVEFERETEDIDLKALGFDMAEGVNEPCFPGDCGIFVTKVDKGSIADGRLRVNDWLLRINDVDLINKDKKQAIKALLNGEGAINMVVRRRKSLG

LNX1_2, Q8TBB1 = molecular target: LNX1_2, Q8TBB1
Chain of LNX1_2, Q8TBB1 (Q8TBB1 371-470): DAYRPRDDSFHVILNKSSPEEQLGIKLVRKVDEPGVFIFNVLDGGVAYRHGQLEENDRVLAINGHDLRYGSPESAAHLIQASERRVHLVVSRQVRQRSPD

SNTB1, Q13884 = molecular target: T8, SNTB1, Q13884
T8 sequence (Q13884 107-205, limits assumed, looked up): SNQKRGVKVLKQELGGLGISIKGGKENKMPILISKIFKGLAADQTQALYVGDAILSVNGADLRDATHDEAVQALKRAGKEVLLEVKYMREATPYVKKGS

LIN7B, Q9HAP6 = molecular target: T9, LIN7B, Q9HAP6
T9 sequence (Q9HAP6 88-185, limits assumed, looked up): T3 sequence (Q9NUP9 88-185, limits assumed, looked up) with S2A, E13D, I35V, I40V, H65Q, K79S, K89R, S96A

SNX27, Q96L92 = molecular target: SNX27, Q96L92
GRASP, Q7Z6J2 = molecular target: GRASP, Q7Z6J2
Chain of GRASP, Q7Z6J2 (Q7Z6J2 96-193): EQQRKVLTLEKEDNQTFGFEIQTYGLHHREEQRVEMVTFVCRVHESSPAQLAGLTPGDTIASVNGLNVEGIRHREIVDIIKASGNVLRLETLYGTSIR

FRMPD2_2, Q68DX3 = molecular target: FRMPD2_2, Q68DX3
Chain of FRMPD2_2, Q68DX3 (Q68DX3 944-1038): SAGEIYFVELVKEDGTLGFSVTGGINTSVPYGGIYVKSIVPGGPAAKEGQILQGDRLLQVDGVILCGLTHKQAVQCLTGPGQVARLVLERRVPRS

Inadl_6, Q8NI35 = molecular target: Inadl_6, Q8NI35
Chain of Inadl_6, Q8NI35 (Q8NI35 1058-1167): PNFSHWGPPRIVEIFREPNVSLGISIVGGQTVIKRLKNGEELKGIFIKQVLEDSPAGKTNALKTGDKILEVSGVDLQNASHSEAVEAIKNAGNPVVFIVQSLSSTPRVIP

AHNAK1, Q09666 = molecular target: AHNAK1, Q09666
Chain of AHNAK1, Q09666 (Q09666 4-100): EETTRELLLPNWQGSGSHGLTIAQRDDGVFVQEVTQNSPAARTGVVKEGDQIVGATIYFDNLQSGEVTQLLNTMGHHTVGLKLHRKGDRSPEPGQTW

GRID2IP_2, A4D2P6 = molecular target: GRID2IP_2, A4D2P6
Chain of GRID2IP_2, A4D2P6 (A4D2P6 272-370): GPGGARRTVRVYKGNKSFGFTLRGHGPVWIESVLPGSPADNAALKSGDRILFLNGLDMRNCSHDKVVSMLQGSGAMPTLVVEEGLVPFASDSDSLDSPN

MAGI1_2, Q96QZ7 = molecular target: MAGI1_2, Q96QZ7
Chain of MAGI1_2, Q96QZ7 (Q96QZ7 456-580): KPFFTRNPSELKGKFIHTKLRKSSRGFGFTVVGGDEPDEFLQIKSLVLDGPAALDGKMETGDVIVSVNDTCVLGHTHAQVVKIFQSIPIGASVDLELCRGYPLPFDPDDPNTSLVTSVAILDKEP

TX1BP3, O14907 = molecular target: T10, TX1BP3, O14907
T10 sequence (O14907 10-122, limits assumed, looked up): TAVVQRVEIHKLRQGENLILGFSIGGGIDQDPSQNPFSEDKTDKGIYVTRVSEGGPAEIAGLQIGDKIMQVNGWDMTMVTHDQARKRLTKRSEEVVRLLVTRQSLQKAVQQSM

TIAM2, Q8IVF5 = molecular target: T11, TIAM2, Q8IVF5
T11 sequence (Q8IVF5 885-986, limits assumed, looked up): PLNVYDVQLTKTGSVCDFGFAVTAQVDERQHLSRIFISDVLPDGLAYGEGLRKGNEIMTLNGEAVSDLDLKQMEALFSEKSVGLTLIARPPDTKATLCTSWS

DLG3_1, Q92796 = molecular target: T12, DLG3_1, Q92796
T12 sequence (Q92796 125-227, limits assumed, looked up): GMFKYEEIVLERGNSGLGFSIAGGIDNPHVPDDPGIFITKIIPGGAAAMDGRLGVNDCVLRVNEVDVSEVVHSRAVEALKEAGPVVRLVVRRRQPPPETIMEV

FRMPD2_1, Q68DX3 = molecular target: FRMPD2_1, Q68DX3
Chain of FRMPD2_1, Q68DX3 (Q68DX3 770-861): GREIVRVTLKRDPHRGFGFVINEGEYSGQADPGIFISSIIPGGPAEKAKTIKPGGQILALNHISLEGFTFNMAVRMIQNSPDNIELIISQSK

With GSGAVEMESV [AQP6, Q13520] the pKd (MPDZ_10, O75970) was “below the threshold”, the pKd (PICK1, Q9NRD5) was “below the threshold” and the pKd (GRIP1_4, Q9Y3R0) was “below the threshold”. The pKd (LIN7C, Q9NUP9) was “below the threshold”, the pKd (ARHGAP21, Q5T5U3) was 3.91 and the pKd (PDZD2_2, O15018) was 3.7. The pKd (MPP6, Q9NZW5) was “below the threshold”, the pKd (SCRIB_3, Q14160) was “below the threshold” and the pKd (MPDZ_5, O75970) was “below the threshold”. The pKd (LAP2, Q96RT1) was “below the threshold”, the pKd (DLG5_1, Q8TDM6) was “below the threshold” and the pKd (LNX1_2, Q8TBB1) was “below the threshold”. For the same binder, the pKd (SNTB1, Q13884) was “below the threshold”, the pKd (LIN7B, Q9HAP6) was “below the threshold” and the pKd (SNX27, Q96L92) was 3.7. The pKd (GRASP, Q7Z6J2) was “below the threshold”, the pKd (FRMPD2_2, Q68DX3) was “below the threshold” and the pKd (Inadl_6, Q8NI35) was “below the threshold”. The pKd (AHNAK1, Q09666) was “below the threshold”, the pKd (GRID2IP_2, A4D2P6) was “below the threshold” and the pKd (MAGI1_2, Q96QZ7) was “below the threshold”. The pKd (TX1BP3, O14907) was “below the threshold”, the pKd (TIAM2, Q8IVF5) was “below the threshold” and the pKd (DLG3_1, Q92796) was “below the threshold”. For the same binder, the pKd (FRMPD2_1, Q68DX3) was “below the threshold”.

With RRISSLESEV [GRIN2C, Q14957] the pKd (MPDZ_10, O75970) was “below the threshold”, the pKd (PICK1, Q9NRD5) was “below the threshold” and the pKd (GRIP1_4, Q9Y3R0) was “below the threshold”. The pKd (LIN7C, Q9NUP9) was 4.29, the pKd (ARHGAP21, Q5T5U3) was “below the threshold” and the pKd (PDZD2_2, O15018) was 4.98. The pKd (MPP6, Q9NZW5) was “below the threshold”, the pKd (SCRIB_3, Q14160) was 4.55 and the pKd (MPDZ_5, O75970) was “below the threshold”. For the same binder, the pKd (LAP2, Q96RT1) was 4.46, the pKd (DLG5_1, Q8TDM6) was “below the threshold” and the pKd (LNX1_2, Q8TBB1) was “below the threshold”. The pKd (SNTB1, Q13884) was 4.64, the pKd (LIN7B, Q9HAP6) was 4.12 and the pKd (SNX27, Q96L92) was 4.97. The pKd (GRASP, Q7Z6J2) was “below the threshold”, the pKd (FRMPD2_2, Q68DX3) was 3.85 and the pKd (Inadl_6, Q8NI35) was “below the threshold”. For the same binder, the pKd (AHNAK1, Q09666) was “below the threshold”, the pKd (GRID2IP_2, A4D2P6) was 3.54 and the pKd (MAGI1_2, Q96QZ7) was 4.05. It also gave a pKd (TX1BP3, O14907) of 5, a pKd (TIAM2, Q8IVF5) of 4.13 and a pKd (DLG3_1, Q92796) of 4.37. For the same binder, the pKd (FRMPD2_1, Q68DX3) was “below the threshold”.

PPYRHRNTVV [ERBB4, Q15303] was tested, and the pKd (MPDZ_10, O75970) was 3.95, the pKd (PICK1, Q9NRD5) was “below the threshold” and the pKd (GRIP1_4, Q9Y3R0) was “below the threshold”. For the same binder, the pKd (LIN7C, Q9NUP9) was “below the threshold”, the pKd (ARHGAP21, Q5T5U3) was 4.08 and the pKd (PDZD2_2, O15018) was 4.25. For the same binder, the pKd (MPP6, Q9NZW5) was “below the threshold”, the pKd (SCRIB_3, Q14160) was 3.58 and the pKd (MPDZ_5, O75970) was “below the threshold”. For the same binder, the pKd (LAP2, Q96RT1) was “below the threshold”, the pKd (DLG5_1, Q8TDM6) was “below the threshold” and the pKd (LNX1_2, Q8TBB1) was 3.54. For the same binder, the pKd (SNTB1, Q13884) was 5, the pKd (LIN7B, Q9HAP6) was “below the threshold” and the pKd (SNX27, Q96L92) was 4.42. For the same binder, the pKd (GRASP, Q7Z6J2) was 4.04, the pKd (FRMPD2_2, Q68DX3) was “below the threshold” and the pKd (Inadl_6, Q8NI35) was “below the threshold”. For the same binder, the pKd (AHNAK1, Q09666) was “below the threshold”, the pKd (GRID2IP_2, A4D2P6) was “below the threshold” and the pKd (MAGI1_2, Q96QZ7) was 4.21. The pKd (TX1BP3, O14907) was 4.13, the pKd (TIAM2, Q8IVF5) was “below the threshold” and the pKd (DLG3_1, Q92796) was 4.21. It also gave a pKd (FRMPD2_1, Q68DX3) of 3.71.

In the case of CLREWCDAFL [BANF1, O75531], the pKd (MPDZ_10, O75970) is reported as “below the threshold”, the pKd (PICK1, Q9NRD5) is reported as “below the threshold” and the pKd (GRIP1_4, Q9Y3R0) is reported as “below the threshold”. The pKd (LIN7C, Q9NUP9) was 3.66, the pKd (ARHGAP21, Q5T5U3) was 4.41 and the pKd (PDZD2_2, O15018) was “below the threshold”. For the same binder, the pKd (MPP6, Q9NZW5) was “below the threshold”, the pKd (SCRIB_3, Q14160) was 4.03 and the pKd (MPDZ_5, O75970) was “below the threshold”. The pKd (LAP2, Q96RT1) was 3.69, the pKd (DLG5_1, Q8TDM6) was “below the threshold” and the pKd (LNX1_2, Q8TBB1) was “below the threshold”. The pKd (SNTB1, Q13884) was “below the threshold”, the pKd (LIN7B, Q9HAP6) was 3.94 and the pKd (SNX27, Q96L92) was 4.58. The pKd (GRASP, Q7Z6J2) was 3.51, the pKd (FRMPD2_2, Q68DX3) was “below the threshold” and the pKd (Inadl_6, Q8NI35) was 4.32. For the same binder, the pKd (AHNAK1, Q09666) was “below the threshold”, the pKd (GRID2IP_2, A4D2P6) was “below the threshold” and the pKd (MAGI1_2, Q96QZ7) was “below the threshold”. The pKd (TX1BP3, O14907) was 4.62, the pKd (TIAM2, Q8IVF5) was 4.05 and the pKd (DLG3_1, Q92796) was “below the threshold”. The pKd (FRMPD2_1, Q68DX3) was “below the threshold”.
